Earlier results in paper PMC5322387.
One block for each substance: values may come before it.

How the values were obtained:
[1] = target: E2 L2 L2 (Homo sapiens) (UniProt P10515); test: gel filtration
[2] = target: E2 L2 L2 (Homo sapiens) (UniProt P10515); test: ITC
[3] = target: E3BP L3 L3 (Homo sapiens) (UniProt O00330); test: ITC
Chain of E3BP L3 L3 (Homo sapiens) (O00330 56-132): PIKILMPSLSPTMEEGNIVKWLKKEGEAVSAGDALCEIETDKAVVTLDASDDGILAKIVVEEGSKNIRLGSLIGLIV

Chain of E2 L2 L2 (Homo sapiens) (P10515 218-294): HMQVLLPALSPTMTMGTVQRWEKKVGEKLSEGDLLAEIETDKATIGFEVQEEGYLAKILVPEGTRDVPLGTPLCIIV
Chain of PDK1 (Q15118 29-436): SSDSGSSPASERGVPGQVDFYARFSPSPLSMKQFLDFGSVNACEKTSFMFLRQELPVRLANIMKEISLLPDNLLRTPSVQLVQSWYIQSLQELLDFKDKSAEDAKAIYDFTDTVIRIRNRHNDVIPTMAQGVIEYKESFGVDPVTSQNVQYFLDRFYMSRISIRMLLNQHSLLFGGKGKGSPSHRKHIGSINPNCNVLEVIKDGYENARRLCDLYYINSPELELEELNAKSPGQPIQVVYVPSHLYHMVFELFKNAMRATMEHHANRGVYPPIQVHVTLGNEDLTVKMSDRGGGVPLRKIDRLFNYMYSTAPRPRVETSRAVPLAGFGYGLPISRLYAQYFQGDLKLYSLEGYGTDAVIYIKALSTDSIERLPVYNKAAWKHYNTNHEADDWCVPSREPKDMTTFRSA
Chain of PDK4 (Q16654 2-411): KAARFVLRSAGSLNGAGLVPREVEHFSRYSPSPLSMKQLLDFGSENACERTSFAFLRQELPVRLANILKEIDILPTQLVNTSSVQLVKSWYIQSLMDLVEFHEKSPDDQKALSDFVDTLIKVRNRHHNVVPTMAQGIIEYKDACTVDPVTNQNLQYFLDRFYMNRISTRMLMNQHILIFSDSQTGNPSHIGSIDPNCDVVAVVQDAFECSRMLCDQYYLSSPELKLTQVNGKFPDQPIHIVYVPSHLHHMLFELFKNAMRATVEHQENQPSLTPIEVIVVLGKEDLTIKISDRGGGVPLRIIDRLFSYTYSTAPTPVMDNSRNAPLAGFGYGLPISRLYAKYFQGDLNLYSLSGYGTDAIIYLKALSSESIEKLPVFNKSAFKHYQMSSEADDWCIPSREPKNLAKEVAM
Chain of PDK3 (Q15120 2-406): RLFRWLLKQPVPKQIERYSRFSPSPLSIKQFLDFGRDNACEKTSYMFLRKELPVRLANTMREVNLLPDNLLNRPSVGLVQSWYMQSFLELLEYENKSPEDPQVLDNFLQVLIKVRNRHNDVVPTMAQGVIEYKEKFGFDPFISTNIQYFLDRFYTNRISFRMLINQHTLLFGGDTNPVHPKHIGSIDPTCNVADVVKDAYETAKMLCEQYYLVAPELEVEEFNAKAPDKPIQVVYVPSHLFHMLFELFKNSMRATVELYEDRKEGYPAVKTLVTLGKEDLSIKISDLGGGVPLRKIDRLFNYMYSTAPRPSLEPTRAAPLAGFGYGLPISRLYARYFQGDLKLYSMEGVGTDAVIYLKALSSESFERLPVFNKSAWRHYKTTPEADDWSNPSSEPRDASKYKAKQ

- Kd [1]: 10 µM
Substance: PDK1 (from UniProt Q15118)

- Kd [2]: 1.17 µM
Substance: PDK3 (from UniProt Q15120)

- Kd [3]: 5 µM
Substance: PDK4 (from UniProt Q16654)
